Measured values published in US20210317201A1 (Boehringer Ingelheim, published 2021).
Values joined by “and” are separate entries in the source; they are usually repeats but may differ in a detail not shown here. Equal values may be shown once.

T1: recombinant human IL-23 (human, UniProt P29460 23-328)
T1 sequence 1: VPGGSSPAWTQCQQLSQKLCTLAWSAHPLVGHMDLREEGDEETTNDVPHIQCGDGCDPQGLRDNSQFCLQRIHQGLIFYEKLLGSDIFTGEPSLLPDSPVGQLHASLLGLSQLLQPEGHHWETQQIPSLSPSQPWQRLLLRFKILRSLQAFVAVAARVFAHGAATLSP
T1 sequence 2: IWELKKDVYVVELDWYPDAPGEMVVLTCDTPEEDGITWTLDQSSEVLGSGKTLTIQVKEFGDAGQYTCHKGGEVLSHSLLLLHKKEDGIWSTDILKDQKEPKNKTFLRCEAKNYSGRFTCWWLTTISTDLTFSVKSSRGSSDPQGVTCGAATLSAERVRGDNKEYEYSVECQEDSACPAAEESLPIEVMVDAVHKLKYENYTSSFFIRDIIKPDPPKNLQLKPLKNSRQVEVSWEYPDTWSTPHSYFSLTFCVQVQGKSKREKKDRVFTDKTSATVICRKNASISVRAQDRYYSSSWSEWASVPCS

T2: natural human IL-23 from activated THP-1 cells (human, UniProt P29460 23-328)
T2 sequence 1: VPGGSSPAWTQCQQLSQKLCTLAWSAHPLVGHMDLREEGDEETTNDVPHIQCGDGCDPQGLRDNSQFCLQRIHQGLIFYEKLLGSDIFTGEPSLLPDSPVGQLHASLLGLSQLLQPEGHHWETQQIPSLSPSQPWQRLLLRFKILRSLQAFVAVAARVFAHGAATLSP
T2 sequence 2: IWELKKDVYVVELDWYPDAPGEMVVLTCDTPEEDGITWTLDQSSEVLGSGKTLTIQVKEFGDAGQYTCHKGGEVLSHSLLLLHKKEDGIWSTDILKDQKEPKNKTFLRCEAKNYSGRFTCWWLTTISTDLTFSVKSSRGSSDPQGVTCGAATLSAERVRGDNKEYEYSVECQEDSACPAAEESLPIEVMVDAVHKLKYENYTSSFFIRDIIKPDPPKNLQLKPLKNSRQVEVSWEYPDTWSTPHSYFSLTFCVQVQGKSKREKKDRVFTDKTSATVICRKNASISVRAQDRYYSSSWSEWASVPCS


How the values were obtained:
recombinant human IL-23 [1] = biological target: T1, recombinant human IL-23; experiment: cell-based or functional assay
[2] = biological target: T2, natural human IL-23 from activated …; experiment: cell-based or functional assay
recombinant human IL-23 [3] = biological target: T1, recombinant human IL-23; experiment: BLI, Fortebio Octet; hybridoma-derived antibody
Experimental: Kinetics and binding affinities were measured using the Fortebio OCTET® (Fortebio, Menlo Park, Calif.) using material generated from hybridoma following single column purification.

Binder	IC50, IL-23 stimulated IL-17 production from mouse splenocytes (recombinant human IL-23 [1])	IC50, IL-23 stimulated IL-17 production from mouse splenocytes [2]	Kd (recombinant human IL-23 [3])	koff (recombinant human IL-23 [3])	kon (recombinant human IL-23 [3])
27G8 (antibody, V domains shown, Mouse monoclonal antibody from hybridoma; also called 27G8vk; 27G8vh) VH: QVQLQQSDAELVKPGASVKISCKVSGYTFTDHTIHWMKQRPEQGLEWIGYIYPRDGYPKFNEKFKGKATLTADKSSSTAYMQLNSLTSEDSAVYFCARRPPYYAMDYWGQGTSVAVSS VL: DIVLTQSPASLAVSLGQRATISCRASKSVSTSGYSYIHWYQQKPGQPPKFLIYLASNLDSGVPARFSGSGSGTDFTLNIHPVEEEDAATYYCQHSRELPYTFGGGTKLEIK	0.235 nM	5 nM	0.0272 nM	4.26e-06 s⁻¹	157000 M⁻¹ s⁻¹
26F7 (antibody, V domains shown, Mouse monoclonal antibody from hybridoma; also called 26F7Vk; 26F7VH) VH: EVQLQQSGPELVKPGASVKISCKASGYTFTDYYMNWVRQSHGESLEWIGDFNHNNDVITYNPKFKGKVTLTVEKSSTTAYMELRSLSSEDSAVYYCARGLRGYYAMDYWGQGTSVTVSS VL: DIVLTQSPASLAVSLGQRATISCRASKSVRFSDYFYMHWYQQKPGQPPKLLIYLASNLESGVPARFSGSGSGTDFTLNIHPVEEEDAATYYCQNSRELPYTFGGGTKLEIK	0.027 nM		0.0281 nM	1.34e-05 s⁻¹	476000 M⁻¹ s⁻¹
2D1 (antibody, V domains shown, Mouse monoclonal antibody from hybridoma; also called 2D1vk; 2D1vh) VH: QVQLKESGPGLVAPSQSLSITCTVSGFSLTTYAISWVRQSPGKGLEWLGVIWTGGGTKYNSALKSRLSISKDNSKSQVFLKMNSLQTDDTARYYCARKDYNYGGAMDYWGQGTSVTVSS VL: DIVLTQSPGSLAVSLGQRATISCRTSESVYSYGQNFIHWYQQKPGQPPKLLIYRASNLESGIPARFSGSGSRTDFTLTMNPVEADDVATYYCQQTNEDPYTFGGGTKLEIR		2.34 nM and 1.91 nM and 1.6 nM	< 0.001 nM	< 1e-06 s⁻¹	
18C4 (antibody, V domains shown, Mouse monoclonal antibody from hybridoma; also called 18C4vk; 18C4vh) VH: EVQLQQSGPEVVKPGASVKMSCKASGYTFTSSVIHWVKQKAGQGLEWIGYINPYNDGTKYNEKFKGKATLTSDRSSSTAYMELSSLTSEDSAVYYCTRRLDEAYWGQGTLVTVSA VL: DIVMTQSPATLSVTPGDRVSLSCRASQSISEYLHWYQQKSHESPRLLIKYASQSISGIPSRFSGSGSGSDFTLSINSVEPEDVGVYYCQNGHSFPFTFGSGTKLEIK	0.471 nM		0.00557 nM	2.14e-06 s⁻¹	384000 M⁻¹ s⁻¹
18E5 (antibody, V domains shown, Mouse monoclonal antibody from hybridoma; also called 18E5vk; 18E5vh) VH: EVQLQQSGPELVKPGAAVKMSCKASGYTFTRYLIHWVKQKPGQGLEWIGYINPYNDGTKYNEKFKGKATLTSDKSSSTAYMELSSLTSEDSAVYYCTSNWDLDYWGQGTTLTVSS VL: DIVMTQSPATLSVTPGDRVSLSCRASQSISDYLYWYQQKSHESPRLLIKFASQSISGIPSRFTGSGSGSDFTLSIDSVEPDDVGVFFCQNGHSFPFTFGGGTKLEIK		0.009 nM and 0.013 nM	0.00793 nM	2.61e-06 s⁻¹	329000 M⁻¹ s⁻¹
Chimeric 24A5 (antibody, V domains shown) VH: EVQLQQSGPELVKPGASVKMSCKASGYTFTTSIMHWVKQKPGQGLEWIGYINPYDDVTKYNEKFKGKATLTSDKSSSTAYMELSSLTSEDSAVYYCVRRWDEAYWGQGTLVTVSA VL: DIVMTQSPATLSVTPGNRVSLSCRASQSISDYLHWYQQKSHESPRLLIKYASQSISGIPSRFSGSGSGSNFTLSINSVEPEDVGVYYCQNGHSFPFTFGSGTKLEIK	0.404 nM	0.095 nM and 0.102 nM			
Chimeric 22E2 (antibody, V domains shown) VH: EVQLQQSGPELVKPGASVKMSCKASGYTFTSSIIHWVKQRPGQGLEWIGYINPYDDVTKYNEKFKGKATLTSDKSSSTAYMELSSLTSEDSAVYYCARRWDESYWGQGTLVTVSA VL: DIVMTQSPATLSVTPGDRVSLSCRASQSISVYLHWYQQKSPESPRLLIKYASQSISGIPSRFSGSGSGSDFTLSINSVEPEDVGVYYCQNGHSFPFTFGSGTKLEIK	0.1 nM				
24A5 (antibody, V domains shown, Mouse monoclonal antibody from hybridoma; also called 24A54vk; 24A5vh) VH: EVQLQQSGPELVKPGASVKMSCKASGYTFTTSIMHWVKQKPGQGLEWIGYINPYDDVTKYNEKFKGKATLTSDKSSSTAYMELSSLTSEDSAVYYCVRRWDEAYWGQGTLVTVSA VL: DIVMTQSPATLSVTPGNRVSLSCRASQSISDYLHWYQQKSHESPRLLIKYASQSISGIPSRFSGSGSGSNFTLSINSVEPEDVGVYYCQNGHSFPFTFGSGTKLEIK	0.022 nM and 0.037 nM	0.085 nM and 0.031 nM	0.0226 nM	4.57e-06 s⁻¹	202000 M⁻¹ s⁻¹
31H9 (antibody, V domains shown, Mouse monoclonal antibody from hybridoma; also called 31H9vk; 31H9vh) VH: EVQLQQSGPELVKPGASVKMSCKASGYTFTRYLMHWVKQKPGQGLEWIGYINPYNDGTNYNEKFKGKATLTSDKSSSTAYMELSSLTSEDSAVYYCSLNWDYAYWGQGTLVTVSA VL: DIVMTQSPATLSVTPGDRVSLSCRASQSISDYLHWYQQKSHESPRLLIKYASQSISGIPSRFSGSGSGSDFTLSINSVEPEDVGVYYCQNGHSFPYTFGGGTKLEIK	0.96 nM	2 nM	0.0115 nM	3.45e-06 s⁻¹	299000 M⁻¹ s⁻¹
22E2 (antibody, V domains shown, Mouse monoclonal antibody from hybridoma; also called 22E2vk; 22E2vh) VH: EVQLQQSGPELVKPGASVKMSCKASGYTFTSSIIHWVKQRPGQGLEWIGYINPYDDVTKYNEKFKGKATLTSDKSSSTAYMELSSLTSEDSAVYYCARRWDESYWGQGTLVTVSA VL: DIVMTQSPATLSVTPGDRVSLSCRASQSISVYLHWYQQKSPESPRLLIKYASQSISGIPSRFSGSGSGSDFTLSINSVEPEDVGVYYCQNGHSFPFTFGSGTKLEIK	0.061 nM and 0.13 nM		1.02 nM	0.000353 s⁻¹	346000 M⁻¹ s⁻¹
18D3 (antibody, V domains shown, Mouse monoclonal antibody from hybridoma; also called 18D3vk; 18D3vh) VH: EVQLQQSGPELVKPGASVKMSCKASGYTFTRYLIHWVKQKPGQGLEWIGYINPYNDGTKYNEKFKGKATLTSDKSSSTAYMELSSLTSEDSAVYYCTSNWDLDYWGQGTTLTVSS VL: DIVMTQSPATLSVTPGDRVSLSCRASQSISDYLYWYQQKSHESPRLLIKFASQSISGIPSRFTGSGSGSDFTLSIDSVEPDDVGVFFCQNGHSFPFTFGGGTKLEIK	0.234 nM		0.00678 nM	2.16e-06 s⁻¹	319000 M⁻¹ s⁻¹
20E8 (antibody, V domains shown, Mouse monoclonal antibody from hybridoma; also called 20E8vk; 20E8vh) VH: EVQLQQSGPELVKPGASVKMSCKASGYTFTSSVMHWVKQKAGQGLEWIGYINPYNDGTQYNEKFKGKATLTSDKFSSTAYMELSSLTSEDSAVYYCTRRLDEAYWGQGTLVTVSA VL: DIVMTQSPATLSVTPGDRVSLSCRASQSISEYLHWYQQKSHESPRLLIKYASQSISGIPSRFSGSGSGSDFTLSINSVEPEDVGVYYCQNGHSFPFTFGSGTKLEIK		0.438 nM and 0.561 nM	0.638 nM	0.000269 s⁻¹	421000 M⁻¹ s⁻¹
73H10 (antibody, V domains shown, Mouse monoclonal antibody from hybridoma; also called 73H10Vk; 73H10VH) VH: EVQLQQSGPELVKPGASVKMSCKASGYTFTRYVMHWVKQKPGQGLEWIGYINPYNDVTKYNEKFKGKATLTSDRSSSTAYMKLSSLTSEDSAVYYCARNWDVPYWGQGTLITVSA VL: DIQMTQSPVFLSASVGETVTITCRASENIDSYLAWYQQKQGKSPQLLVFAARNLADGVPSRFSGSGSGTQYSLKINRMQSEDVARYYCQHYYSTPFTFGSGTKLEIE	1.41 nM		0.0992 nM	5.24e-06 s⁻¹	52900 M⁻¹ s⁻¹
74H3 (antibody, V domains shown, Mouse monoclonal antibody from hybridoma; also called 74H3Vk; 74H3VH) VH: EVQLQQSGPELVKPGASVKMSCKASGYTFTRYLMHWVKQKPGQGLEWIGYINPYNDGTKYNERFKGKATLTSDKSSSTAYMELSSLTSEDSAVYYCARNWDVPYWGQGTLVTVSA VL: DIQMTQSPASLSASVGETVIFTCRASENIDSYLAWYQQKQGKSPQLLVYAATNLADGVPSRFSGSGSGTQYSLKINSLQSEDVARYYCLHYYSTPFTFGSGTELEIK	1.35 nM		0.0683 nM	2.09e-06 s⁻¹	30600 M⁻¹ s⁻¹
15C11 (antibody, V domains shown, Mouse monoclonal antibody from hybridoma; also called 15C11vk; 15C11vh) VH: EVQLQQSGPVLVKPGASVKMSCKASGYTFTDYYMNWVKQSHGKSLEWIGVIIPYNGGTSYNQKFKGKATLTVDKSSSTAYMELNSLTSEDSAVYYCARDGHRWYFDVWGTGTTVTVSS VL: DVVMTQTPLSLPVSLGDQASISCRSSQSLVHSNGNTYLHWYLQKPGQSPKLLIYKVSNRFSGVPDRFSGSGSGTDFTLKINRVEAEDLGVYFCSQSTHVPYTFGGGTQLEIK	0.126 nM	0.232 nM	0.026 nM	1.07e-05 s⁻¹	411000 M⁻¹ s⁻¹
43F5 (antibody, V domains shown, Mouse monoclonal antibody from hybridoma; also called 43F5vk; 43F5vh) VH: EVQLQQSGPELVKPGASVKISCRASGYSFTGYYMNWVKQSPEKSLEWIGEIIPTTGGTSYNQKFKAKATLTVDKSSSTAYMQLKSLTSEDSAVYYCARESGGFYWYFDVWGTGTTVTVSS VL: DVVMTQSPLSLPVSLGDQASISCRSSQSLVHSNGNTYLHWYLLKPGQSPKLLIYKVSNRFSGVPDRFSGSGSGTDFTLKISRVEAEDLGVYFCSQSTHVPYTFGGGTKLEIK		8 nM	0.0346 nM	5.96e-06 s⁻¹	172000 M⁻¹ s⁻¹
